Measurements from the supplement of paper PMC10567573.

B1: RHOBTB3 (parent)
chain: KVVEAHKIVLCAVSHVFMLLFNVK

Variants of: B1
Assay: protein stability index of a GFP-peptide fusion (GPS, HEK-293T) (PSI 1-6); higher = more stable
Details: c terminus: a fixed tail appended
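Note: lentivirally expressed fusions sorted by FACS into six bins by GFP to DsRed ratio, PSI derived from sequencing read proportions per bin multiplied by bin number.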

Variant	protein stability index
A12G	2.92
A12Q	2.37
A12P	2.73
A12S	2.78
A12H	2.83
A12L	3.63
A12I	1.96
A12C	2.29
A12M	2.2
A12R	2.33
A12N	3.15
A12K	2.92
A12E	2.31
A12D	3.75
A12F	2.55
H6E	2.21
H6R	3.29
H6A	1.84
H6F	2.13
H6W	2.24
H6T	1.79
H6I	1.85
H6K	2.65
H6P	2.4

Variant	protein stability index
H6N	3.4
H6M	1.63
H6Q	1.5
H6G	1.84
H6V	1.77
H6S	1.92
H6C	2.58
H6L	1.75
V3Q	3.48
V3I	3.11
V3K	3.12
V3P	3.35
V3M	3.1
V3E	1.82
V3L	2.09
V3Y	2.53
V3G	2.38
V3S	2.39
V3D	2.2
V3F	3.62
V3R	2.02
V3T	2.36
V3N	3.87
E4Q	2.23

Variant	protein stability index
E4A	2.24
E4S	1.9
E4R	2.69
E4L	2.08
E4H	2.69
E4V	2.79
E4F	2.23
E4C	2.67
E4W	1.42
E4T	2.53
E4I	2.78
E4Y	2.75
E4M	2.54
E4K	3.02
E4P	2.37
E4D	2.33
A5H	2.9
A5Q	4.3
A5T	1.72
A5D	3.37
A5V	2.48
A5K	2.58
A5E	3.14
A5M	3.42

Variant	protein stability index
A5Y	3.88
A5C	2.77
A5P	3.11
A5L	1.76
A5F	2.45
A5R	3.59
A5S	3.05
A5G	3.1
A5N	2.07
A5W	3.03
I8A	2.45
I8D	2.04
I8Q	2.41
I8N	1.89
I8H	2.52
I8E	1.98
I8G	2.84
I8W	3.31
I8P	2.29
I8C	2.2
I8F	2.48
I8M	3.3
I8K	2.59
I8T	2.93

Variant	protein stability index
I8Y	1.88
I8R	2.17
I8V	1.68
L10S	3.43
L10R	1.64
L10A	1.75
L10G	3.06
L10T	3.3
L10E	2.73
L10V	3.3
L10K	2.13
L10I	2.64
L10Y	3.18
L10W	1.55
L10F	2.66
L10D	2.5
L10N	3.5
L10P	1.82
V9D	2.67
V9I	2.87
V9W	3.46
V9F	2.7
V9A	1.87
V9R	3.25

Variant	protein stability index
V9P	2.36
V9H	2.71
V9Y	1.64
V9T	2.47
V9E	2.79
V9L	3.24
V9S	3.31
V9Q	2.73
V9G	2.12
V9K	3.01
V9M	2.83
V9C	2.32
C11K	1.75
C11W	2.66
C11S	1.98
C11A	2.85
C11R	1.98
C11V	3.24
C11E	1.86
C11T	1.99
C11M	2.26
C11I	4.05
C11H	4.45
C11L	2.24

Variant	protein stability index
C11P	2.8
C11F	1.94
C11D	2.13
C11N	1.88
C11Q	2.37
C11G	2.26
K7M	2.93
K7C	1.83
K7F	2.99
K7A	3.36
K7Y	3.35
K7S	2.01
K7D	3.98
K7W	2.34
K7V	2.31
K7Q	3
K7T	2.64
K7N	2.31
K7G	2.79
K7P	2.02
K7E	2.9
K7R	2.65
K7L	2.74
